Test results published in PMC3710364.

T1: TIAR RRM2L (UniProt Q01085 94-181)
T1 sequence: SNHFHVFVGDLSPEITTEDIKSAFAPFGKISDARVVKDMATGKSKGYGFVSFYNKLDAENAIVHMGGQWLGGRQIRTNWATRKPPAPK

T2: TIAR RRM1 (UniProt Q01085 1-94)
T2 sequence: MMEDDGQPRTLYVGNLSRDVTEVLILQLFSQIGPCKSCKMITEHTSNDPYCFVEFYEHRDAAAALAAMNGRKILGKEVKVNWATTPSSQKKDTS

T3: TIAR RRM12S (UniProt Q01085 8-175)
T3 sequence: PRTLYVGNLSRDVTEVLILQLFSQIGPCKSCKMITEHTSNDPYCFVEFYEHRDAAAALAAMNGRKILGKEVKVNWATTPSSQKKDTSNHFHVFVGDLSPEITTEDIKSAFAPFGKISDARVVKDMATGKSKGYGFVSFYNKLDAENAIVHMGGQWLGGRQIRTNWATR


How the values were obtained:
[1] = target: T1, TIAR RRM2L; test: NMR
[2] = target: T1, TIAR RRM2L; test: SPR
[3] = target: T2, TIAR RRM1; test: SPR
[4] = target: T3, TIAR RRM12S; test: SPR

Binder | binding result [1] | Kd [2] [nM] | binding result [3] | Kd [4] [nM]
UUAUUU (ssRNA) [6-nt AU-rich RNA] | binds |  |  | 
GGGGGGUUUUUUUUUUUUUUUUUGGGGG (ssRNA) [U-rich RNA] |  | 200 ± 6 | no binding | 
TTTTTTTTTTTTTTTTTTTT (ssDNA) [T-rich DNA] |  | 66 ± 3 |  | 314 ± 2
